Molecular target: FZD7 class proteins
Assay: ELISA of biotinylated Wnt binding to FZD CRD-Fc with or without peptide

- fold enhancement of binding by Fz7-21 or dFz7-21: 1.5 to 2 fold
B1: Biotinylated Wnt5a (ligand)
chain: IIGAQPLCSQLAGLSQGQKKLCHLYQDHMQYIGEGAKTGIKECQYQFRHRRWNCSTVDNTSVFGRVMQIGSRETAFTYAVSAAGVVNAMSRACREGELSTCGCSRAARPKDLPRDWLWGGCGDNIDYGYRFAKEFVDARERERIHAKGSYESARILMNLHNNEAGRRTVYNLADVACKCHGVSGSCSLKTCWLQLADFRKVGDALKEKYDSAAAMRLNSRGKLVQVNSRFNSPTTQDLVYIDPSPDYCVRNESTGSLGTQGRLCNKTSEGMDGCELMCCGRGYDQFKTVQTERCHCKFHWCCYVKCKKCTEIVDQFVCK
modifications: Biotinylated with the Pierce reagent cat no. 21338; the positions are not stated and the letters are unchanged. The lipid modification of Wnt (fatty acyl moiety) is not carried by the letters.

Source: US20190359653A1, “SELECTIVE PEPTIDE INHIBITORS OF FRIZZLED” (Genentech, Inc., priority 2016, published 2019)
